Reference: patent US5756665A, “Peptide isolated from micrococcus varians and use thereof” (priority 1995, dated 1998)

Experiments:
Assay type in all cases: cell-based
[1] = tested on: Lactobacillus helveticus (N 2); test: Inactivation by enzymes, agar well test
[2] = tested on: Lactobacillus helveticus (N 2); test: Resistance to heat and to pH, agar well test; settings: pH 4 or 7 combined with elevated temperature
Gram-negative bacteria = test: Inhibition spectrum, summary for Gram-negative bacteria; settings: summary of Table V
Text: The inhibition spectrum of the supernatant is thus determined.

[3] = tested on: Lactobacillus helveticus (N 2); test: Resistance to pH, agar well test; settings: pH 2 to 10
[4] = tested on: Lactobacillus helveticus (N 2); test: Resistance to heat, agar well test; settings: 60 min incubation at 100 °C
[5] = tested on: strain Lactococcus lactis which produces lacticin 481; test: Inhibition spectrum test on the lacticin 481 producer

| Substance | influence of catalase on bactericidal activity ([1]; Tables I and II, two indicator strains) | effect of proteolytic enzymes on bactericidal activity ([1]; all proteolytic enzymes of Tables I and II) | bactericidal activity after heat and pH [2] | inhibitory effect on the growth of Gram-negative bacteria (Gram-negative bacteria) | pH dependence of bactericidal activity [3] | bactericidal activity after heat [4] | growth of the lacticin 481-producing strain in the presence of the bacteriocin [5] |
| --- | --- | --- | --- | --- | --- | --- | --- |
| variacin: bacteriocin from Micrococcus varians strains CNCM I-1586 and CNCM I-1587, amino acid sequence SEQ ID NO:1, 2659 daltons (GSGVIPTISHECHMNSFQFVFTCCS) | not found to exert any influence | suppress the bactericidal activity | not compromised | does not exert any inhibitory effect | not pH-dependent | not compromised |  |
| lacticin 481 |  |  |  |  |  |  | immune |
